Where two headings read alike, the source gives them in different places.
Legend:
nebulin SH3 domain [1] = biological target: T1, nebulin SH3 domain (UniProt P20929 8466-8525); assay: ITC
T1 sequence (looked up): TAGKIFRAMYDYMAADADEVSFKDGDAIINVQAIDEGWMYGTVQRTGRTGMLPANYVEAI

[2] = biological target: T2, nebulette SH3 domain (residues 955-1014) (human (by the printed UniProt entry …, UniProt O76041 955-1014)); assay: ITC
T2 sequence (looked up): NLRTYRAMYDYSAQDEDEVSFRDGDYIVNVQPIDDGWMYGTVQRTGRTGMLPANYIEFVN

nebulin SH3 domain [3] = biological target: T1, nebulin SH3 domain; assay: ITC; remark: listed apart in the source
[4] = biological target: T3, nebulette SH3 domain fused to glutathione S-transferase (human (by the printed UniProt entry …, UniProt O76041 954-1014)); assay: peptide or protein array
T3 sequence (looked up): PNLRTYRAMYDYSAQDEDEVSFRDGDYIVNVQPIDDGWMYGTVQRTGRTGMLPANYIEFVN

Q: For PPPTLPKPKLPKH [synthetic 13-mer XIRP2 peptide PPPTLPKPKLPKH], which Kd (nebulin SH3 domain [1]) is on record?
A: 9.3 µM

Q: What about the Kd [2] of the same binder?
A: 12.9 µM

Q: And the dH [2]?
A: -8.46 kcal/mol

Q: What about the “stoichiometry N” value [2] of the same binder?
A: 1.12

Q: What about the Kd (nebulin SH3 domain [3]) of the same binder?
A: 9.61 µM

Q: What about the dH (nebulin SH3 domain [3]) of the same binder?
A: -9.43 kcal/mol

Q: And the “stoichiometry N” value (nebulin SH3 domain [3])?
A: 1.02

Q: Does GVLPPPTLPKPK [XIRP2 PR6 peptide GVLPPPTLPKPK] bind [4]?
A: binds

Reference: paper PMC3810769 (Molecular Biology of the Cell, 2013)
